Experimental data taken from patent US20220249653A1.

Target: CD40L (human) (UniProt P29965)
Assay: cell-based or functional assay

Chain of UniProt P29965 (P29965 whole entry): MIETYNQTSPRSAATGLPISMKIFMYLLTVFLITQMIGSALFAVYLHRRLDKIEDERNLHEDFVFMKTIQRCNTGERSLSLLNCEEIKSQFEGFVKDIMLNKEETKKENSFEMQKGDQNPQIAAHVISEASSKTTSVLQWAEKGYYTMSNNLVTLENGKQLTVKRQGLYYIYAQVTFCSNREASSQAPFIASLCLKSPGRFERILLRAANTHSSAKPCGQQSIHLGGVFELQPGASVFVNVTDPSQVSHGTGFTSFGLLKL

CD40L blocking antibody (clone MK13A4; Enzo Life Sciences Cat #ALX-805-037-C100)
abrogation of intracellular p24 expression: 90.8%
inhibition of CD4 downregulation (flow cytometry of MDC1/SEB-activated CD4+ T cells): 87.7%
reduction in HIV-1 RNA content in the day 7 co-culture supernatants measured by qRT-PCR: 94.1%
